From article doi:10.1101/2021.04.23.441074 (bioRxiv, 2021)

Biological target: MSH2-MSH3 (purified heterodimer) (human, UniProt P43246 1-934; P20585 1-1137)
Experiment: native gel or EMSA

Sequence of MSH2-MSH3 (purified heterodimer) (P43246 whole entry, chain 1 of 2): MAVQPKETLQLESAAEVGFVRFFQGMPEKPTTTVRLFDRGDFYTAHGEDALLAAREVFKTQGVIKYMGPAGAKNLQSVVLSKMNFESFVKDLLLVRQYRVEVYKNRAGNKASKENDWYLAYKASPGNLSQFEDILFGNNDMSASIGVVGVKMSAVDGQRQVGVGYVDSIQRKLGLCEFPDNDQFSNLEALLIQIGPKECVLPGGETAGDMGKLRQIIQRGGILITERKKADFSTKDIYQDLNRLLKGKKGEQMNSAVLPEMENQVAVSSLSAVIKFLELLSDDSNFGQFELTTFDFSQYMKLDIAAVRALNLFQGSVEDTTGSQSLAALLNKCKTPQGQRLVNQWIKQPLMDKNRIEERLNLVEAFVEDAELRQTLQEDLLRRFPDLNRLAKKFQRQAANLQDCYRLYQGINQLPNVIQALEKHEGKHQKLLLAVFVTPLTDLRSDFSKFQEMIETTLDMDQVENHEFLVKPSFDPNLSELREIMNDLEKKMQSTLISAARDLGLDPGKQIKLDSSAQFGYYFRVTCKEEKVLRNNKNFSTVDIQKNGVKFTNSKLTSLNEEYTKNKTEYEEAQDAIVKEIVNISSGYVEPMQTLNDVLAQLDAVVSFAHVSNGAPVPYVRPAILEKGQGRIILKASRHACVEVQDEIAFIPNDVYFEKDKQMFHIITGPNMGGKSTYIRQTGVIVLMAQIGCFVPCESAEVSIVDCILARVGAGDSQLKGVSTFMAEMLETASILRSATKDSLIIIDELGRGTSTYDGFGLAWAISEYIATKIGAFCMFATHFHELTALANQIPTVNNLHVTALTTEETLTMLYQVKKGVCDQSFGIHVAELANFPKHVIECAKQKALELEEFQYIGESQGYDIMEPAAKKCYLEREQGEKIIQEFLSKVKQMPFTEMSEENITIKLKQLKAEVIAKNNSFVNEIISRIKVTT
Sequence of MSH2-MSH3 (purified heterodimer) (P20585 whole entry, chain 2 of 2): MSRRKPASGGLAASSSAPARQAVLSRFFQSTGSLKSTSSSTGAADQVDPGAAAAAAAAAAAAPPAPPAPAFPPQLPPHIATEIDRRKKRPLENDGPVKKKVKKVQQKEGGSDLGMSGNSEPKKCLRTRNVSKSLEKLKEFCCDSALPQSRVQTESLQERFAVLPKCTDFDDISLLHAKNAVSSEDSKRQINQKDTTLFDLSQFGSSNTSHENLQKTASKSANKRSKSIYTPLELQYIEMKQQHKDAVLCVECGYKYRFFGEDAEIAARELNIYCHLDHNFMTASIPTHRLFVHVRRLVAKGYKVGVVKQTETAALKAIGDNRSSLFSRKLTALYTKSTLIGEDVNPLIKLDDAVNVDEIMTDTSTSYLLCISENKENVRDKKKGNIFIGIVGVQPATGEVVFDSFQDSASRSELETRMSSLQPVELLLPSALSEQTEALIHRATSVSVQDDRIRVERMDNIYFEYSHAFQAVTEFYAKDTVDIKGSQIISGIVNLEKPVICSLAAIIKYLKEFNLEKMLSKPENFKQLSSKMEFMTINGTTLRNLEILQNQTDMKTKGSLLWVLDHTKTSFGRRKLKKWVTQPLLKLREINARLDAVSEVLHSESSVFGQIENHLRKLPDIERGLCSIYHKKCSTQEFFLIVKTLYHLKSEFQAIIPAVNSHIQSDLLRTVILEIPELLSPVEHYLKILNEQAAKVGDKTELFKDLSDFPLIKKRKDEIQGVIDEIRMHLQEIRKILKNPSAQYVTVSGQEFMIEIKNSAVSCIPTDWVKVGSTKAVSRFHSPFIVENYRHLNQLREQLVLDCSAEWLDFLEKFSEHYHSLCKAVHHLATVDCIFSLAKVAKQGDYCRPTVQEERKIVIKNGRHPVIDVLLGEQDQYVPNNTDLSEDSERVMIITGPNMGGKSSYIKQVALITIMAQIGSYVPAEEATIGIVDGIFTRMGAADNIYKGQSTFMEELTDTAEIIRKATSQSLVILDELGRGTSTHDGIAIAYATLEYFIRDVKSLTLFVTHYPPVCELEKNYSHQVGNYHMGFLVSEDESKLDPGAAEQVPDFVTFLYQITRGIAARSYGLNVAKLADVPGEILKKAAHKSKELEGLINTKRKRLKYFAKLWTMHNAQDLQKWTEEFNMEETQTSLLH

binding result: binds
B1: SMARCAD1 (purified) (enzyme, human, UniProt Q9H4L7 1-1026, looked up)
chain: MNLFNLDRFRFEKRNKIEEAPEATPQPSQPGPSSPISLSAEEENAEGEVSRANTPDSDITEKTEDSSVPETPDNERKASISYFKNQRGIQYIDLSSDSEDVVSPNCSNTVQEKTFNKDTVIIVSEPSEDEESQGLPTMARRNDDISELEDLSELEDLKDAKLQTLKELFPQRSDNDLLKLIESTSTMDGAIAAALLMFGDAGGGPRKRKLSSSSEPYEEDEFNDDQSIKKTRLDHGEESNESAESSSNWEKQESIVLKLQKEFPNFDKQELREVLKEHEWMYTEALESLKVFAEDQDMQYVSQSEVPNGKEVSSRSQNYPKNATKTKLKQKFSMKAQNGFNKKRKKNVFNPKRVVEDSEYDSGSDVGSSLDEDYSSGEEVMEDGYKGKILHFLQDASIGELTLIPQCSQKKAQKITELRPFNSWEALFTKMSKTNGLSEDLIWHCKTLIQERDVVIRLMNKCEDISNKLTKQVTMLTGNGGGWNIEQPSILNQSLSLKPYQKVGLNWLALVHKHGLNGILADEMGLGKTIQAIAFLAYLYQEGNNGPHLIVVPASTIDNWLREVNLWCPTLKVLCYYGSQEERKQIRFNIHSRYEDYNVIVTTYNCAISSSDDRSLFRRLKLNYAIFDEGHMLKNMGSIRYQHLMTINANNRLLLTGTPVQNNLLELMSLLNFVMPHMFSSSTSEIRRMFSSKTKSADEQSIYEKERIAHAKQIIKPFILRRVKEEVLKQLPPKKDRIELCAMSEKQEQLYLGLFNRLKKSINNLEKNTEMCNVMMQLRKMANHPLLHRQYYTAEKLKEMSQLMLKEPTHCEANPDLIFEDMEVMTDFELHVLCKQYRHINNFQLDMDLILDSGKFRVLGCILSELKQKGDRVVLFSQFTMMLDILEVLLKHHQHRYLRLDGKTQISERIHLIDEFNTDMDIFVFLLSTKAGGLGINLTSANVVILHDIDCNPYNDKQAEDRCHRVGQTKEVLVIKLISQGTIEESMLKINQQKLKLEQDMTTVDEGDEGSMPADIATLLKTSMGL
